{
  "source": "patent US20100216969A1",
  "about": "(BIONANOPHOTNICS A S, published 2010)",
  "binders": {"B1": {"name": "synthetic disulphide-peptide KAMHAWGCGGGC-NH2 (SEQ ID NO 9) (peptide)", "peptide": "KAMHAWGCGGGC-NH2", "modifications": "disulfide 8-12; also: attached to aldehyde quartz surface via lysine amine and/or N-terminal amine (Schiff bond)", "notes": "Loaded at 10 uM onto an aldehyde-coated TIRF quartz slide; It stood in the assay as the surface coating; also called peptide linker"}},
  "target": "T1, Lysozyme (Sigma L-7651) (UniProt P00698 19-147)",
  "T1 construct": "Used as 2 uM solution in 25 mM Tris pH 7.0; also called model protein",
  "T1 sequence (P00698 19-147 limits assumed)": "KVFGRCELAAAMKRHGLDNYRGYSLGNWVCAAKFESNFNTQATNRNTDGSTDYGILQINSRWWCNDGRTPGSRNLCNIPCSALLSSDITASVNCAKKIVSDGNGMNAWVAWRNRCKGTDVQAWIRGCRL",
  "assay": "TIRF flow chamber, tryptophan fluorescence (excitation 295 nm, emission 350 nm); lysozyme loaded over the peptide-coated quartz slide with the light off, then Tween20/PBS and buffer rinses",
  "excerpt": "A TIRF system (BioElectroSpec, Inc., Harrisburg, Pa.) coupled with a fluorescence spectrophotometer (PTI QM-2000 from Photon Technology Int., Lawrenceville, N.J.) with a 75W Xenon arc source was used. The PTI instrument excitation and emission slits were set at 6 nm. The flow chamber was comprised by a “sandwich” consisting of a TIRF quartz prism, a TIRF quartz slide (with the sample surface), a 10 μm polyureathane gasket (comprising the chamber thickness), and a back block with holes to channel the solution through the flow chamber. In this setup, the excitation light travels through the prism and slide, hits the interface between slide and solution, leading to total internal reflection at the interface. The reflected beam generates an evanescent electromagnetic field in the centre of the TIRF slide—this area of the TIRF slide serves thus as the sensor surface. Only fluorophores that are present at the surface and in close proximity of the surface (within the evanescent field) are excited and fluoresce.",
  "note": "Bridge positions count the residues as written; N and C are the ends. Ends that are not written are not given here.",
  "data": [
    {"binder": "B1", "values": [
      {"measurement": "binding result", "result": "no binding (tested: 2 µM)"}
    ]}
  ]
}
